Measured values: patent EP3411068A2 (dated 2018)
Each block holds one binder with its values, some of them ahead of it.

Key:
human PDL1-Fc [1] = biological target: T1, human PDL1-Fc (human, UniProt Q9NZQ7 19-238); test: binding assay as in Example 2 (Figure 42)
T1 construct: also called hPDL1; hPDLl

human VEGFR2-Fc [2] = biological target: T2, human VEGFR2-Fc (human, UniProt P35968 20-764); test: binding assay as in Example 2 (Figure 42)
T2 construct: also called hVEGFR2; recombinant human VEGFR2
T2 sequence (P35968 20-764 limits assumed): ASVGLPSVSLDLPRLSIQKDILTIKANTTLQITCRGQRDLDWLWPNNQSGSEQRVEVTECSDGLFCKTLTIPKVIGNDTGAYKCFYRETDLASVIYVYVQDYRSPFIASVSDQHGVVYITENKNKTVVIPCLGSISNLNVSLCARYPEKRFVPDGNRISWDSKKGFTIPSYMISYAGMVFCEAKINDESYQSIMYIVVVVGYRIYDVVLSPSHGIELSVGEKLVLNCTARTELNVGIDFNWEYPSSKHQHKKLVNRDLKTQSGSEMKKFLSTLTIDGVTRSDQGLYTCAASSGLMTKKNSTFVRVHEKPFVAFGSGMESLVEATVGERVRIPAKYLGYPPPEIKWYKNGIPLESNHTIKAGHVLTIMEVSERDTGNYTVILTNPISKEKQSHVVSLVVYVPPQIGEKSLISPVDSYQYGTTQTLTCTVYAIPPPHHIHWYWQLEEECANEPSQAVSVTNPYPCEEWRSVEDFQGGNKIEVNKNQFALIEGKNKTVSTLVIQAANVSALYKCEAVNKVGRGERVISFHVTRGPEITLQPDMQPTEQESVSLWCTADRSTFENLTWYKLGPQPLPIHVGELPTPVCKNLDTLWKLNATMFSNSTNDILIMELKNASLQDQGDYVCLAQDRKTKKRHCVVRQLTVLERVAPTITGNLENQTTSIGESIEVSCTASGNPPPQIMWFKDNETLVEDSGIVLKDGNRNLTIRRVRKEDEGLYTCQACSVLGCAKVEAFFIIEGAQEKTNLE

mouse VEGFR2-Fc [3] = biological target: T3, mouse VEGFR2-Fc (mouse, UniProt P35918 20-762); test: blocking ELISA, mVEGFR2-Fc binding to coated mVEGF
T3 construct: also called mVEGFR2; recombinant mouse VEGFR2
T3 sequence (P35918 20-762 limits assumed): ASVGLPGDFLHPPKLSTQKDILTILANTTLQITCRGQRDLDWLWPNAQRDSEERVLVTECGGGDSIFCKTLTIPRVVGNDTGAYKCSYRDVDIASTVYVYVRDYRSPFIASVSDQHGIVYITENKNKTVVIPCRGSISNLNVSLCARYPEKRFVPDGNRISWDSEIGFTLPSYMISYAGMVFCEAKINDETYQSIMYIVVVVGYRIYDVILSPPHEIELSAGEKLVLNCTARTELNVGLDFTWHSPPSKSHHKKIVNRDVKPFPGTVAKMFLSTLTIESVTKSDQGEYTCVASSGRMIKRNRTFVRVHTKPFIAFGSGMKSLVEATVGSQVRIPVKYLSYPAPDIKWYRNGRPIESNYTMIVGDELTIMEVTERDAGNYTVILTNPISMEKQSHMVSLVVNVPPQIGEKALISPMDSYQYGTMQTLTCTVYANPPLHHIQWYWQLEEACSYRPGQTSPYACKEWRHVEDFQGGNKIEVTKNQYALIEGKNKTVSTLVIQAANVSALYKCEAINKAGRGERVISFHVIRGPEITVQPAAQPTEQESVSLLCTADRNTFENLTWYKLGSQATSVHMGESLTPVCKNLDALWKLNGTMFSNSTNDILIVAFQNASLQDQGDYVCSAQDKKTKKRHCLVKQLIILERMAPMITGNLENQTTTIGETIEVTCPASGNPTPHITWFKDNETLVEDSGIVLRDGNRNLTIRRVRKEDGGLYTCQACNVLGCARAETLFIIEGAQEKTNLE

human VEGFR2-Fc [4] = biological target: T2, human VEGFR2-Fc; test: SPR (Biacore), hVEGFR-Fc immobilized on CM5, antibody injected, 1:1 Langmuir
human VEGFR2-Fc [5] = biological target: T2, human VEGFR2-Fc; test: blocking ELISA, hVEGFR2-Fc binding to coated hVEGF
human VEGFR2-Fc [6] = biological target: T2, human VEGFR2-Fc; test: dose response ELISA, antigen-Fc coated, HRP anti-human Fab
mouse VEGFR2-Fc [7] = biological target: T3, mouse VEGFR2-Fc; test: as above
[8] = biological target: T4, human VEGFR2 expressed on KDR-PAE cells (human, UniProt P35968 20-1356); test: flow cytometry on KDR-PAE cells
T4 construct: whole, on cells; also called PAE-KDR; KDR-PAE (hVEGFR2)
T4 sequence (P35968 20-1356): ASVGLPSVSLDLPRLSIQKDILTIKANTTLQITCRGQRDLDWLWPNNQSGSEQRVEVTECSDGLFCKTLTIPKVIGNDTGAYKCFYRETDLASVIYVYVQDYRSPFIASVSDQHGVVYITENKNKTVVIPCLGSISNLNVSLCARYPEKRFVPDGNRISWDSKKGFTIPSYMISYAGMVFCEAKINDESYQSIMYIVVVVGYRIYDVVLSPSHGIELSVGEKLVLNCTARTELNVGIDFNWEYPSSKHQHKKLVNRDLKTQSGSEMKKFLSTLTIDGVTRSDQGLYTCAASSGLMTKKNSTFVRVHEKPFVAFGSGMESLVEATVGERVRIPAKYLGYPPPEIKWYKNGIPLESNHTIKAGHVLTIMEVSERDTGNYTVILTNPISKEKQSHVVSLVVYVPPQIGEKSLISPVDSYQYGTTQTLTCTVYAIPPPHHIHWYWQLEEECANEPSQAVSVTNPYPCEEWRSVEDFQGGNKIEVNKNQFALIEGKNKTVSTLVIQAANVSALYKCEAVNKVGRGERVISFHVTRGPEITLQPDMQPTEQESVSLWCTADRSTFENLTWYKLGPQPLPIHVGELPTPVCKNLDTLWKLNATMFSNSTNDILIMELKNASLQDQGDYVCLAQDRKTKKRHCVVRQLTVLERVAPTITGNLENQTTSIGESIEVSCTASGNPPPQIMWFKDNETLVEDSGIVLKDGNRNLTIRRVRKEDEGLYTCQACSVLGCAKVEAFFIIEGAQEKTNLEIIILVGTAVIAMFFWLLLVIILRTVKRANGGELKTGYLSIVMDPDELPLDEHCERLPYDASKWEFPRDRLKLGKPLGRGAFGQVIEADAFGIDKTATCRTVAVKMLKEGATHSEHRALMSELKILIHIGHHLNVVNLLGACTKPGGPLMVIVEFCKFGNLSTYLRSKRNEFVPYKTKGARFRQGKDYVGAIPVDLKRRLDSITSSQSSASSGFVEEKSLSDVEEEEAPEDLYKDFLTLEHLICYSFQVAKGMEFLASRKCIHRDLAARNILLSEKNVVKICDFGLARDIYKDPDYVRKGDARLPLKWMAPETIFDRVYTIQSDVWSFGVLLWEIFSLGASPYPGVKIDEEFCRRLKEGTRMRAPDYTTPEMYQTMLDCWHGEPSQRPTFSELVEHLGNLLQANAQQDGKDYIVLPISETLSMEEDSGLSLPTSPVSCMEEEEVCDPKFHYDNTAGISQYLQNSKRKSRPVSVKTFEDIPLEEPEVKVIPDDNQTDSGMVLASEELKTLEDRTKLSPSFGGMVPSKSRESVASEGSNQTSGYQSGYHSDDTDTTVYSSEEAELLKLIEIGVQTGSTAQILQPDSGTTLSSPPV

mouse PDL1-Fc [9] = biological target: T5, mouse PDL1-Fc (mouse, UniProt Q9EP73 19-239, limits assumed); test: blocking ELISA, biotin mPDL1-Fc binding to immobilized mPD1
T5 construct: also called mPDL1; mPDLl
T5 sequence (Q9EP73 19-239 limits assumed): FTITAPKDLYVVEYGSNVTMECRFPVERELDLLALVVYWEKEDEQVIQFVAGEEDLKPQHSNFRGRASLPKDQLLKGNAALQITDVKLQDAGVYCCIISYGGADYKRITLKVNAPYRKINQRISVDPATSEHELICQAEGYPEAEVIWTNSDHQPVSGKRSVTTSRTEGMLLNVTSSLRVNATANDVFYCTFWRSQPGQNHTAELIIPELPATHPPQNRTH

[10] = biological target: T6, human PDL1 expressed on MDA-MB-231 cells (human, UniProt Q9NZQ7 19-290); test: flow cytometry on MDA-MB-231 cells
T6 construct: whole, on cells; also called cell expressed human PDL1

human PDL1-Fc [11] = biological target: T1, human PDL1-Fc; test: SPR (Biacore), hPDL1-Fc immobilized on CM5, antibody injected, 1:1 Langmuir
human PDL1-Fc [12] = biological target: T1, human PDL1-Fc; test: dose response ELISA, antigen-Fc coated, HRP anti-human Fab
mouse PDL1-Fc [13] = biological target: T5, mouse PDL1-Fc; test: as above
human PDL1-Fc [14] = biological target: T1, human PDL1-Fc; test: blocking ELISA, biotin hPDL1-Fc binding to immobilized hPD1
[15] = biological target: T7, mouse PDL1 expressed on B16-F10 cells (mouse, UniProt Q9EP73 19-290); test: flow cytometry on B16-F10 cells
T7 construct: whole, on cells; also called B16-F10 (mPDLl); cell expressed mouse PDL1
T7 sequence (Q9EP73 19-290): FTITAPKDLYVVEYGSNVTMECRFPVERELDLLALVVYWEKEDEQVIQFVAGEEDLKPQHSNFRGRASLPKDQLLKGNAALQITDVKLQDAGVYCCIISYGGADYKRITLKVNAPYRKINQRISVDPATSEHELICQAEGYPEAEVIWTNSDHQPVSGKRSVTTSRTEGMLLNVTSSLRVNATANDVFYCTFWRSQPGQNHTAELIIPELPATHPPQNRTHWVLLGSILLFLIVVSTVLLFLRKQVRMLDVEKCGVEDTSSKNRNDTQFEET

T1 sequence (Q9NZQ7 19-238 limits assumed): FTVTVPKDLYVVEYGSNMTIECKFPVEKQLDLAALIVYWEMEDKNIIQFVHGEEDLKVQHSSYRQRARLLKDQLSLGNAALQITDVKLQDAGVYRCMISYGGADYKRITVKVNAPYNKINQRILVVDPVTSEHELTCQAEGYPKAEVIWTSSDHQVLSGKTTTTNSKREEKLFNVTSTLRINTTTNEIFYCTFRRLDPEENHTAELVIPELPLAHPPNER

B2: BsAb (D7A8-B1A1)_30 (bispecific antibody, human IgG1, lambda, L234A L235A)
heavy: not shown
light: QSALTQPASVSGSPGQSITISCTGTSSDVGAYNYVSWYQQHPGKAPKLMIYDVSNRPSGVSNRFSGSKSGNTASLTISGLQAEDEADYYCSSYTSSSTRVFGTGTKVTVLGQPKAAPSVTLFPPSSEELQANKATLVCLISDFYPGAVTVAWKADSSPVKAGVETTKPSKQSNNKYAASSYLSLTPEQWKSHRSYSCQVTHEGSTVEKTVAPTECS
notes: Variant of BsAb (D7A8-B1A1), apparently with the 30GS linker
binding result (human PDL1-Fc [1]): binds | binding result (human VEGFR2-Fc [2]): binds

B5: BsAb (A11-B1A1)_30 (bispecific antibody, human IgG1, kappa, L234A L235A)
heavy: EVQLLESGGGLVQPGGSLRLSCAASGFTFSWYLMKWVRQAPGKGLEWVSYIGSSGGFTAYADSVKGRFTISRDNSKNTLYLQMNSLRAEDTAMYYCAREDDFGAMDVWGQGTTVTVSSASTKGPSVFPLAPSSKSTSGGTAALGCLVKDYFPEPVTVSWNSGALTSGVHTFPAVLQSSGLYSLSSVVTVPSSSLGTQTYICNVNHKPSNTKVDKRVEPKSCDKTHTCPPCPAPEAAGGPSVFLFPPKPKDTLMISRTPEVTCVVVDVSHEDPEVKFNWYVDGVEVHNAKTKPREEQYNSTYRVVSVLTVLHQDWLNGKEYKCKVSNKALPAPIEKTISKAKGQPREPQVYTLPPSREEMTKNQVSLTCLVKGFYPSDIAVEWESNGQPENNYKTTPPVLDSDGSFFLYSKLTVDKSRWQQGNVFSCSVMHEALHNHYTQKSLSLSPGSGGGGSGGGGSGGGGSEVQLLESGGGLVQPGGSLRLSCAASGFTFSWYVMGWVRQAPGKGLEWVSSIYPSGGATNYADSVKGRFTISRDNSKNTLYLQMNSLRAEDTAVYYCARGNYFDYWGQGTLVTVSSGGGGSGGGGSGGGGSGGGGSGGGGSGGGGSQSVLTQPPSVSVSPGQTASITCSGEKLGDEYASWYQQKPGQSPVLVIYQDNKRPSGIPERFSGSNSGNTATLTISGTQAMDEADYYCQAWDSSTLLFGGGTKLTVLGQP
light: DIQMTQSPSSLSASVGDRVTITCRASQTVSKYFNWFQQKPGEAPKLLIYATSTLQSGVPSRFSGSGYGTEFTLTISSLQPEDFATYYCQQSYTTPWTFGQGTKVEIKRTVAAPSVFIFPPSDEQLKSGTASVVCLLNNFYPREAKVQWKVDNALQSGNSQESVTEQDSKDSTYSLSSTLTLSKADYEKHKVYACEVTHQGLSSPVTKSFNRGEC
binding result (human PDL1-Fc [1]): binds | binding result (human VEGFR2-Fc [2]): binds

B7: B1C4A7 (antibody, human IgG1, kappa, V domains shown)
VH: EVQLLESGGGLVQPGGSLRLSCAASGFTFSWYVMGWVRQAPGKGLEWVSSIYPQGGATSYADSVKGRFTISRDNSKNTLYLQMNSLRAEDTAVYYCARGNYFDYWGQGTLVTVSS
VL: DIQMTQSPGTLSLSPGEGATLSCRASQSVSSNYFGWYQQKPGQAPRLLIYGASSRATGIPDRFSGSGSGTDFTLTISRLEPEDSAVYYCQQFDSLPLTFGGGTKVEIKR
notes: Parental mono-specific anti-VEGFR2 IgG1; also called anti-VEGFR2 antibody B1C4A7
IC50 (mouse VEGFR2-Fc [3]): 0.973 nM | Kd (human VEGFR2-Fc [4]): 0.052 nM | IC50 (human VEGFR2-Fc [5]): 1.72 nM | EC50 (human VEGFR2-Fc [6]): 0.107 nM | EC50 (mouse VEGFR2-Fc [7]): 0.466 nM | EC50 [8]: 0.522 nM

B8: BsAb (A1-A8)-LALA (bispecific antibody, human IgG1, lambda)
heavy: not shown
light: QSVLTQPPSVSVSPGQTASITCSGEKLGDEYASWYQQKPGQSPVLVIYQDNKRPSGIPERFSGSNSGNTATLTISGTQAMDEADYYCQAWDSSTLLFGGGTKLTVLGQPKAAPSVTLFPPSSEELQANKATLVCLISDFYPGAVTVAWKADSSPVKAGVETTKPSKQSNNKYAASSYLSLTPEQWKSHRSYSCQVTHEGSTVEKTVAPTECS
notes: LALA version: leucines 234 and 235 of the IgG1 CH2 mutated to alanine; also called bi-specific antibody A1-A8; A18
IC50 (mouse PDL1-Fc [9]): 3.2 nM | EC50 [10]: 0.402 nM | Kd (human VEGFR2-Fc [4]): ~0.2 nM | Kd (human PDL1-Fc [11]): ~0.0032 nM | IC50 (human VEGFR2-Fc [5]): 1.19 nM | EC50 (human PDL1-Fc [12]): 0.088 nM | EC50 (mouse PDL1-Fc [13]): 0.16 nM | EC50 (human VEGFR2-Fc [6]): 0.128 nM | IC50 (human PDL1-Fc [14]): 2.51 nM | EC50 [8]: 0.779 nM | EC50 [15]: 0.113 nM

B9: BsAb (A7-A8)-LALA (bispecific antibody, human IgG1, kappa)
heavy: not shown
light: DIQMTQSPGTLSLSPGEGATLSCRASQSVSSNYFGWYQQKPGQAPRLLIYGASSRATGIPDRFSGSGSGTDFTLTISRLEPEDSAVYYCQQFDSLPLTFGGGTKVEIKRTVAAPSVFIFPPSDEQLKSGTASVVCLLNNFYPREAKVQWKVDNALQSGNSQESVTEQDSKDSTYSLSSTLTLSKADYEKHKVYACEVTHQGLSSPVTKSFNRGEC
notes: LALA version: leucines 234 and 235 of the IgG1 CH2 mutated to alanine; also called bi-specific antibody A7-A8
IC50 (mouse PDL1-Fc [9]): 5.59 nM | IC50 (mouse VEGFR2-Fc [3]): 0.801 nM | EC50 [10]: 0.223 nM | Kd (human VEGFR2-Fc [4]): ~0.047 nM | Kd (human PDL1-Fc [11]): ~0.0012 nM | IC50 (human VEGFR2-Fc [5]): 1.29 nM | EC50 (human PDL1-Fc [12]): 0.079 nM | EC50 (mouse PDL1-Fc [13]): 0.137 nM | EC50 (human VEGFR2-Fc [6]): 0.128 nM | EC50 (mouse VEGFR2-Fc [7]): 0.598 nM | IC50 (human PDL1-Fc [14]): 2.51 nM | EC50 [8]: 0.533 nM | EC50 [15]: 0.122 nM

Now from value to binder:

binding result (human PDL1-Fc [1]): binds | binding result (human VEGFR2-Fc [2]): binds
B1: BsAb (D7A8-B1A1) (bispecific antibody, human IgG1, lambda, L234A L235A)
heavy: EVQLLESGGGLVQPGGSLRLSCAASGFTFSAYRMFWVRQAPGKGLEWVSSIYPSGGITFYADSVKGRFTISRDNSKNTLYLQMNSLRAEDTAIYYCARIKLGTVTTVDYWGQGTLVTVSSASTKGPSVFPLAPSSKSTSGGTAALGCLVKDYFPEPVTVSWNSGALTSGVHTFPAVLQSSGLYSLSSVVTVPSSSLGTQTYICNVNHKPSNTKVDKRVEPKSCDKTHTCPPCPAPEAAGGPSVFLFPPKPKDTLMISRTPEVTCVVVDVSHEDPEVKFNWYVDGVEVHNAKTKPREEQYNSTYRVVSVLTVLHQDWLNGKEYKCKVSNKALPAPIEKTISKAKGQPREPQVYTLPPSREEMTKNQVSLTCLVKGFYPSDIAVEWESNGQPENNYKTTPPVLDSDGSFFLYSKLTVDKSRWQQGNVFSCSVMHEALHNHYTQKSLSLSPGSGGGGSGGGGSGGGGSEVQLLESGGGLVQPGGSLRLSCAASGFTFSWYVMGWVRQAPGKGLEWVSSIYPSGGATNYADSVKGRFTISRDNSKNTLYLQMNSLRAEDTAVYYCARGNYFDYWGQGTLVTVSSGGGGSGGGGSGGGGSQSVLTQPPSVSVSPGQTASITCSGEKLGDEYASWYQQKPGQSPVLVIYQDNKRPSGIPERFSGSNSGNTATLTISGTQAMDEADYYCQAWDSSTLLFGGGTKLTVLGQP
light: B2 light

binding result (human PDL1-Fc [1]): binds | binding result (human VEGFR2-Fc [2]): binds
B3: BsAb (D7A8-B1A1)_30cc (bispecific antibody, human IgG1, lambda, L234A L235A)
heavy: not shown
light: B2 light
notes: Variant of BsAb (D7A8-B1A1), apparently with the 30GS linker and an added disulfide bond in the scFv; also called BsAb (D7A8-BlAl)_30cc

binding result (human PDL1-Fc [1]): binds | binding result (human VEGFR2-Fc [2]): binds
B4: BsAb (A11-B1A1) (bispecific antibody, human IgG1, kappa, L234A L235A)
heavy: not shown
light: B5 light

binding result (human PDL1-Fc [1]): binds | binding result (human VEGFR2-Fc [2]): binds
B6: BsAb (A11-B1A1)_30cc (bispecific antibody, human IgG1, kappa, L234A L235A)
heavy: not shown
light: B5 light
notes: Variant of BsAb (A11-B1A1), apparently with the 30GS linker and an added disulfide bond in the scFv; also called BsAb (Al l-BlAl)_30cc
